Reference: PMC5430550 (Scientific Reports, 2017)

Experiments:
[1] = molecular target: T1, RlmH (ribosomal large-subunit methyltransferase H) (Escherichia coli, UniProt P0A8I8); assay: isothermal titration calorimetry, sequential binding model; settings: 50 mM sodium phosphate pH 6.8, 200 mM KCl, 5% glycerol, 1 mM β-mercaptoethanol, 25 °C; first SAM site of the dimer; read-out: Calculated K D1
T1 construct: full length (155 residues, ~17 kDa), first Met replaced by MHHHHHHV (N-terminal His6 tag kept), expressed in E. coli BLR(DE3), homodimer
Description: (§1) isothermal titration calorimetry, sequential binding model on RlmH (ribosomal large-subunit methyltransferase H)

[2] = molecular target: RlmH (ribosomal large-subunit methyltransferase H) (Escherichia coli, UniProt P0A8I8, E138A); assay: as above; settings: 50 mM sodium phosphate pH 6.8, 200 mM KCl, 5% glycerol, 1 mM β-mercaptoethanol, 25 °C; first SAM site of the dimer; read-out: Calculated K D1
RlmH (ribosomal large-subunit methyltransferase H) (Escherichia coli, UniProt P0A8I8, E138A), sequence (P0A8I8 2-155 E138A): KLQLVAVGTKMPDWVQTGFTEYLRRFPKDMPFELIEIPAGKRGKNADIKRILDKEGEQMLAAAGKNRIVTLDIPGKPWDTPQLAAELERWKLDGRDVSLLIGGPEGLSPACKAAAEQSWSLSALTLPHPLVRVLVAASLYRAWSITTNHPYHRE
Description: as §1

[3] = molecular target: RlmH (ribosomal large-subunit methyltransferase H) (Escherichia coli, UniProt P0A8I8, E138Q); assay: as above; settings: 50 mM sodium phosphate pH 6.8, 200 mM KCl, 5% glycerol, 1 mM β-mercaptoethanol, 25 °C; first SAM site of the dimer; read-out: Calculated K D1
RlmH (ribosomal large-subunit methyltransferase H) (Escherichia coli, UniProt P0A8I8, E138Q), sequence (P0A8I8 2-155 E138Q): as the sequence (P0A8I8 2-155 E138A) above, with A137Q counted along it
Description: as §1

[4] = molecular target: T1, RlmH (ribosomal large-subunit methyltransferase H); assay: X-ray crystal structure, […] Å; settings: co-crystallised with 2 mM sinefungin, pH 8.5, 16 °C; SAM-binding pocket, two ligands per dimer
[5] = test system: RlmH H153F (Escherichia coli (ASKA clone JW0631)); assay: competition; settings: pseudouridine 1915 lacking N3-methylation (delta-rlmH), Single-turnover competitive methylation assay, mutant pre-incubated with heat-activated 70S ribosomes 20 min at 25 C before wild-type RlmH-[3H]SAM
[6] = test system: RlmH Y152F (Escherichia coli (ASKA clone JW0631)); assay: competition; settings: pseudouridine 1915 lacking N3-methylation (delta-rlmH), Single-turnover competitive methylation assay, mutant pre-incubated with heat-activated 70S ribosomes 20 min at 25 C before wild-type RlmH-[3H]SAM
[7] = test system: RlmH E138A (Escherichia coli (ASKA clone JW0631)); assay: competition; settings: pseudouridine 1915 lacking N3-methylation (delta-rlmH), Single-turnover competitive methylation assay, mutant pre-incubated with heat-activated 70S ribosomes 20 min at 25 C before wild-type RlmH-[3H]SAM
[8] = test system: RlmH E138Q (Escherichia coli (ASKA clone JW0631)); assay: competition; settings: pseudouridine 1915 lacking N3-methylation (delta-rlmH), Single-turnover competitive methylation assay, mutant pre-incubated with heat-activated 70S ribosomes 20 min at 25 C before wild-type RlmH-[3H]SAM
[9] = test system: RlmH R154A (Escherichia coli (ASKA clone JW0631)); assay: competition; settings: pseudouridine 1915 lacking N3-methylation (delta-rlmH), Single-turnover competitive methylation assay, mutant pre-incubated with heat-activated 70S ribosomes 20 min at 25 C before wild-type RlmH-[3H]SAM
[10] = molecular target: the molecule itself; assay: SEC-MALS; Superdex S-200 HR10/30; 50 mM potassium phosphate pH 7.0, 300 mM KCl, 2 mM DTT, 5% glycerol; dialyzed protein injected at ~20 and ~200 µM (0.35 mg/ml and 3.85 mg/ml); same result at both

Molecule: C[S+](CC[C@H](N)C(=O)O)C[C@H]1O[C@@H](n2cnc3c(N)ncnc32)[C@H](O)[C@@H]1O (stereo partly shown) [SAM, S-adenosyl-methionine]
- Kd [1]: 5.58 ± 0.31 µM
- Kd [2]: 6.7 ± 0.77 µM
- Kd [3]: 7.05 ± 0.56 µM

Molecule: Nc1ncnc2c1ncn2[C@@H]1O[C@H](C[C@@H](N)CC[C@H](N)C(=O)O)[C@@H](O)[C@H]1O [SFG, sinefungin]
- X-ray crystal structure, 2.1 Å [4]: crystal structures of E. coli RlmH bound to the cofactor SAM or to the inhibitor sinefungin

Molecule: delta-rlmH 70S ribosome (23S rRNA helix 69, pseudouridine 1915)
- IC50 [5]: 3 µM
- IC50 [6]: 3 µM
- IC50 [7]: 3 µM
- IC50 [8]: 3 µM
- IC50 [9]: 40 µM

B1: ribosomal large-subunit methyltransferase H (RlmH), wild type, His6-tagged (enzyme, E. coli, UniProt P0A8I8 2-155, looked up)
chain: KLQLVAVGTKMPDWVQTGFTEYLRRFPKDMPFELIEIPAGKRGKNADIKRILDKEGEQMLAAAGKNRIVTLDIPGKPWDTPQLAAELERWKLDGRDVSLLIGGPEGLSPACKAAAEQSWSLSALTLPHPLVRVLVAESLYRAWSITTNHPYHRE
notes: RlmH (YbeA) of E. coli, 155 amino acids; rlmH gene from ASKA clone JW0631 in pET24b; no cleavage of the tag is described; Limits 2-155 follow from 'first methionine is replaced' and '155 amino acids'; also called YbeA; WT; source: E. coli BLR(DE3), purified (nickel IMAC twice, SEC on Superdex75); not shown: His6, N-terminal, kept
- stoichiometry N [10]: 2

B2: RlmH Y152F, His6-tagged (enzyme, E. coli, UniProt P0A8I8 2-155, looked up)
chain: KLQLVAVGTKMPDWVQTGFTEYLRRFPKDMPFELIEIPAGKRGKNADIKRILDKEGEQMLAAAGKNRIVTLDIPGKPWDTPQLAAELERWKLDGRDVSLLIGGPEGLSPACKAAAEQSWSLSALTLPHPLVRVLVAESLYRAWSITTNHPFHRE
notes: RlmH (YbeA) of E. coli, 155 amino acids; source: E. coli BLR(DE3), purified as the wild-type protein; not shown: His6, N-terminal, kept
- stoichiometry N [10]: 2

B3: RlmH H153F, His6-tagged (enzyme, E. coli, UniProt P0A8I8 2-155, looked up)
chain: KLQLVAVGTKMPDWVQTGFTEYLRRFPKDMPFELIEIPAGKRGKNADIKRILDKEGEQMLAAAGKNRIVTLDIPGKPWDTPQLAAELERWKLDGRDVSLLIGGPEGLSPACKAAAEQSWSLSALTLPHPLVRVLVAESLYRAWSITTNHPYFRE
notes: as for B2
- stoichiometry N [10]: 2

B4: RlmH R154A, His6-tagged (enzyme, E. coli, UniProt P0A8I8 2-155, looked up)
chain: KLQLVAVGTKMPDWVQTGFTEYLRRFPKDMPFELIEIPAGKRGKNADIKRILDKEGEQMLAAAGKNRIVTLDIPGKPWDTPQLAAELERWKLDGRDVSLLIGGPEGLSPACKAAAEQSWSLSALTLPHPLVRVLVAESLYRAWSITTNHPYHAE
notes: as for B2
- stoichiometry N [10]: 2
